Sequences and labels used below:
B1: Hairpin Ribozyme (parent)
chain: GUCCUCUUUCACGUGCGCGUGAAAGAGAGAAGUGAACCAGAGAAACACACGUUGUGGUAUAUUACCUGGUA

In the data set the parent is B1. Description: self-cleavage, relative activity (ratio to wild type); higher = more cleavage; co-transcriptional.
Take A31C A43C: the self-cleavage was found to be 0.25. With U33A A44C the figure was 0.205; with U33A A44G, 0.16. For A30G U33C, the self-cleavage amounted to 0.0632. Next, A30U U33C: 0.196. On to G32A G57U, for which the self-cleavage was 0.118. With G32C U70G the figure was 0.0915; with U33A C46U, 0.0735; with A31G C66U, 0.294. With G32U U52G the figure was 0.0995; with G32U U52A, 0.155; with A31G G51C, 0.495. Next, G32C G42U: 0.213; G32C G42C: 0.137; G32C G42A: 0.156.

Take A31G U67G: the self-cleavage was 0.337. Next, A31G A41U: 1.37.

As for A31G A41G, the self-cleavage was found to be 0.712. In the case of G32C C46A, the self-cleavage is 0.109. In the case of A31G U55G, the self-cleavage is 0.0654. For the variant G32U A35C, the self-cleavage is 0.107.

In the case of A30U G56C, the self-cleavage amounted to 0.15. Next, A31C A49C: 0.149. With A31C A49U the figure was 0.151; with G32U C37G, 0.0126; with U33A G54U, 0.186. Next, U33A G54A: 0.213; A31U A64U: 0.134; G32C A47C: 0.161. A31U A35G: the self-cleavage is 0.244. With G32U A71U the figure was 0.131.

Take G32U C46U: the self-cleavage is 0.276. For the variant G32C G51U, the self-cleavage worked out at 0.154.

A31U G69U: the self-cleavage was found to be 0.105.

On to G32C U33A, for which the self-cleavage amounted to 0.168. Turning to A31G A43G, the self-cleavage was 0.207. With A31G A43C the figure was 0.0574. As for A30G A49G, the self-cleavage was 0.0332. As to A30G A49U, the self-cleavage is 0.0894. Next, G32U G34A: 0.133. G32A A64U: the self-cleavage was determined as 0.204. With G32U C50G the figure was 0.162; with G32U C50U, 0.119; with A31U C37U, 0.187. For the variant A31U G42U, the self-cleavage came to 0.0854.

With U33A C65G, the self-cleavage was 0.225.

As for U33A C65A, the self-cleavage was 0.225. Take A31C G54C: the self-cleavage worked out at 0.198. With A31C G54U the figure was 0.0998. In the case of A30G U63C, the self-cleavage is 0.185. With A30G U63A the figure was 0.0503; with A30G U63G, 0.101. With A31U U60G the figure was 0.115; with G32C G69U, 0.203. Turning to A30G U52A, the self-cleavage was determined as 0.112.

For A30G U52C, the self-cleavage came to 0.116. With G32A A35U the figure was 0.153; with G32A A35G, 0.142. Next, A31C U55C: 0.208; A31U A41U: 0. Regarding A31U A44C, the self-cleavage stood at 0.101. In the case of A31U A44U, the self-cleavage came to 0.286.

Take G32C A36C: the self-cleavage turned out to be 0.159. As for G32U G56U, the self-cleavage is 0.145. Next, G32A G56U: 0.221; G32A G56A: 0.179; A30U U63C: 0.0881. With A31G A64U the figure was 0.215; with A30U U52A, 0.158; with G32C C66U, 0.04. With A31C A41U the figure was 0.109; with A31C A41G, 0.102; with A31G G69C, 0.199. On to G32U C66A, for which the self-cleavage was 0.229.

A31U U55A: the self-cleavage amounted to 0.0885. As for A31U U33A, the self-cleavage stood at 0.0513. With G32U G69C the figure was 0.136; with U33A C48A, 0.0899; with A31C A39G, 0.09. Consider A31C A39U, for which the self-cleavage turned out to be 0.183. With G32A G68C, the self-cleavage stood at 0.1.

G32A G68U: the self-cleavage is 0.0821. G32A G68A: the self-cleavage is 0.193. Regarding G32C A39G, the self-cleavage is 0.111. Regarding G32A C48U, the self-cleavage is 0.154. For G32A G40A, the self-cleavage is 0.136. With G32A G40U the figure was 0.0775; with G32C G54C, 0.16. With A31G A49G the figure was 0.241; with A31G A49C, 0.162. For the variant G32C A35U, the self-cleavage is 0.132. In the case of G32A C50U, the self-cleavage came to 0.101. With A31U G68U the figure was 0.206. Next, G32C A41G: 0.128; A30G A71G: 0.109. Take G32A A49G: the self-cleavage was determined as 0.366. With A31G G68U, the self-cleavage worked out at 0.113. With G32U U62A the figure was 0.052; with G32U U62C, 0.0761. Next, A31C G42C: 0.163. With A31C G42U the figure was 0.092. Regarding G32C A61C, the self-cleavage stood at 0.222. Next, A30G C66A: 0.192. With A30G C66G, the self-cleavage came out at 0.184.

As for G32U A59G, the self-cleavage came to 0.181. With U33A A47C the figure was 0.0723; with A31C C38U, 0.131; with G32C A59U, 0.103. For G32C A59G, the self-cleavage amounted to 0.15. With A30G C37U the figure was 0.136. Take A31U G51A: the self-cleavage is 0. With A31U U67C the figure was 0.0741; with U33A C66A, 0.0709. U33A C66U: the self-cleavage worked out at 0.151.

As to G32U U60G, the self-cleavage is 0.0848. For the variant G32A U33A, the self-cleavage amounted to 0.139. As for G32U, the self-cleavage is 0.13.

For the variant G32A, the self-cleavage turned out to be 0.153.

Turning to G32C, the self-cleavage came to 0.127. With A31C G40A the figure was 0.131; with A31C G40U, 0.0621. Take A31G A44C: the self-cleavage is 0.188. Next, G32C A44U: 0.22. For the variant G32C A44C, the self-cleavage turned out to be 0.108.

As to G32U U70A, the self-cleavage was determined as 0.111. Next, G32A C37G: 0.0907; A31C G51C: 0.182; A31G A39G: 0.192. Next, G32U G68A: 0.0877; G32U G68U: 0.114. With A31U A47U the figure was 0.141. On to A31C C48G, for which the self-cleavage is 0.103. Next, A31C C48A: 0.115; A30U A35C: 0.0881. With A30U A35U the figure was 0.196; with A31U C38A, 0.0669.

Take A30G U55G: the self-cleavage came to 0.232. Next, A30G U55A: 0.122. Regarding A31G C46G, the self-cleavage is 0.0961.

Regarding A31G C46A, the self-cleavage was found to be 0.155. With A31G C46U the figure was 0.142. Next, A31G A36G: 0.57; G32U U55G: 0.132. Next, G32U U55C: 0.165; G32U U58A: 0.0967.

In the case of G32C C37A, the self-cleavage is 0.125.

For G32A A71G, the self-cleavage amounted to 0.183. With A31U A61C the figure was 0.111. With A31U A61U the figure was 0.138; with A31G A59G, 0.205; with A31G A59U, 0.184. G32A G34U: the self-cleavage was determined as 0.798. For the variant A30G G54A, the self-cleavage stood at 0.102. As to A30U A31G, the self-cleavage is 0.143. For G32A U55C, the self-cleavage was determined as 0.161. Next, G32A U55G: 0.15. With A30G G51U the figure was 0.157; with A31C U67A, 0.2; with A31C U67C, 0.0604.

Take A30G C50G: the self-cleavage was 0.177. Next, A30G A61G: 0.224; U33A A36C: 0.0569.

As to A31G A47C, the self-cleavage was 0.2. Next, A31G A47U: 0.0555.

A31G A47G: the self-cleavage was determined as 0.117.

Turning to A30U A59C, the self-cleavage was 0.153. With A31C U60A the figure was 0.157.
